Source: publication PMC11336944, “CWF19L2 is Essential for Male Fertility and Spermatogenesis by Regulating Alternative Splicing” (Advanced Science, 2024)

Target: T1, PRPF8 (mouse (endogenous in testis), UniProt Q99PV0 1-2335)
T1 construct: PRPF8 (pre-mRNA-processing-splicing factor 8), mouse, endogenous in testis and sorted germ cells; also called spliceosome skeleton marker PRPF8; source: endogenous, PD10 WT mouse testis extract; endogenous, lysate of sorted germ cells from Cwf19l2‐SKO and control mice
Experiment: co-IP; PRPF8 antibody immunoprecipitation from sorted germ cells of Cwf19l2-SKO mice (CWF19L2 deleted in germ cells), immunoblotting, bands quantified against control mice; IgG as negative control
Settings: partners not purified

fold PRPF43 in the PRPF8 co-IP, control over Cwf19l2-SKO, normalised to PRPF8: 1.5 times
B1: PRPF43 (natural protein, mouse (endogenous in testis), UniProt O35286 1-795, looked up)
chain: MSKRHRLDLGEDYPSGKKRAGTDGKDRERDRDREDRSKDRDRERDRGDREREREKEKEKELRASTNAMLISAGLPPLKASHSAHSTHSAHSTHSTHSAHSTHTGHTGHTSLPQCINPFTNLPHTPRYYDILKKRLQLPVWEYKDRFTDILVRHQSFVLVGETGSGKTTQIPQWCVEYMRSLPGPKRGVACTQPRRVAAMSVAQRVADEMDVMLGQEVGYSIRFEDCSSAKTILKYMTDGMLLREAMNDPLLERYGVIILDEAHERTLATDILMGVLKEVVRQRSDLKVIVMSATLDAGKFQIYFDNCPLLTIPGRTHPVEIFYTPEPERDYLEAAIRTVIQIHMCEEEEGDLLLFLTGQEEIDEACKRIKREVDDLGPEVGDIKIIPLYSTLPPQQQQRIFEPPPPKKQNGAIGRKVVVSTNIAETSLTIDGVVFVIDPGFAKQKVYNPRIRVESLLVTAISKASAQQRAGRAGRTRPGKCFRLYTEKAYKTEMQDNTYPEILRSNLGSVVLQLKKLGIDDLVHFDFMDPPAPETLMRALELLNYLAALNDDGDLTELGSMMAEFPLDPQLAKMVIASCDYNCSNEVLSITAMLSVPQCFVRPTEAKKAADEAKMRFAHIDGDHLTLLNVYHAFKQNHESVQWCYDNFINYRSLMSADNVRQQLSRIMDRFNLPRRSTDFTSRDYYINIRKALVTGYFMQVAHLERTGHYLTVKDNQVVQLHPSTVLDHKPEWVLYNEFVLTTKNYIRTCTDIKPEWLVKIAPQYYDMSNFPQCEAKRQLDRIIAKLQSKEYSQY
notes: PRPF43 / PRP43 as printed, mouse, endogenous in testis and sorted germ cells; also called PRP43; ILS complex marker PRPF43; source: endogenous, PD10 WT mouse testis extract; endogenous, lysate of sorted germ cells from Cwf19l2‐SKO and control mice
